Measurements from publication PMC7212079.

Biological target: Hsp32
Assay: native MS

Substance: Hsp32 (natural protein)
- stoichiometry N: 2
